Laboratory results taken from US8697369B2, “Method for screening a test substance for activating a receptor associated with FGF 21 activity” (National Institute of Advanced Industrial Science and …, priority 2007, dated 2014).

How the values were obtained:
Type in all cases: cell-based
[1] = biological target: T1, FGFR1c-expressing BaF3 cells (Mus musculus, UniProt P16092); assay: DNA synthesis (thymidine incorporation) in BaF3 cells expressing only FGFR1c; settings: BaF3 cells expressing FGFR1c but not betaKlotho
T1 construct: the entire-length cDNA of mouse FGFR1c had been cloned; expressed in transfected cells; host or cells: BaF3 (mouse pro-B) cells
T1 sequence (P16092 22-822): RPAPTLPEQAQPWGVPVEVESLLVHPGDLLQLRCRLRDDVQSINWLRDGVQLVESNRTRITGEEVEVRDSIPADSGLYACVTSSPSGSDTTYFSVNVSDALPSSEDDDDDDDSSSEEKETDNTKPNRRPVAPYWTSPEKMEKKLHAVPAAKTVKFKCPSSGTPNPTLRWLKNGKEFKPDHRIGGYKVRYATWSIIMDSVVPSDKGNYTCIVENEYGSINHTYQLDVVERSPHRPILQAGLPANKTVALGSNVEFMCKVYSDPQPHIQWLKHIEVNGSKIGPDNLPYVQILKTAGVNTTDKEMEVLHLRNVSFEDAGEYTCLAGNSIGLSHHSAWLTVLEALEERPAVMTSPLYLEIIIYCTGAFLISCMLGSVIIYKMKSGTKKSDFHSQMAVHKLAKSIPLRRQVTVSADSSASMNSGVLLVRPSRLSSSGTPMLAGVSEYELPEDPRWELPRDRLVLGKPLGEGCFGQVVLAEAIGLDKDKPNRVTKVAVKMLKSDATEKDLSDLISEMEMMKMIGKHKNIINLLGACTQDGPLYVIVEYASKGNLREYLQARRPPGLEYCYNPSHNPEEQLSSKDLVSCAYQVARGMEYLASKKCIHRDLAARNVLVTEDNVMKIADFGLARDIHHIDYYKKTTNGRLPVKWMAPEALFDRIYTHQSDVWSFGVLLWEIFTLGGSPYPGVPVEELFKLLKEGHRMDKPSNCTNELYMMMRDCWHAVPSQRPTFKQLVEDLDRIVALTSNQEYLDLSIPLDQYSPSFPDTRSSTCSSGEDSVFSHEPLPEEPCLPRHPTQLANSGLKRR
Procedure: (§1) A commonly used measurement method is a cell growth stimulating activity measurement method described in Ornitz, D. M., Xu, J., Colvin, J. S., McEwen, D. G., MacArthur, C. A., Coulier, F., Gao, G. and Goldfarb, M. (1996) Receptor specificity of the fibroblast growth factor family. J Biol Chem, 271, 15292-15297. The summary thereof is as follows. FGF used as a measurement target is added to a culture solution containing a cultured cell having an FGF receptor on the surface thereof, and the obtained mixture is cultured for a certain period of time. Thereafter, a labeled thymidine is added to the culture solution, followed by further culture for a certain period of time. By measuring the amount of the labeled thymidine incorporated into polymeric DNA during the culture, the degree of FGF to activate DNA synthesis is evaluated. (In the present invention as well, this method was adopted when the activity of FGF21 was measured in Examples 4, 5, 6, 8, 9, and 10.) […]
(§2) Immediately after inoculation, BaF3 cells that had expressed each clone and only FGFR1c were stimulated by addition of FGF21 (open bar) or PBS (filled bar) used as a control in the presence of heparin, and they were then cultured for 42 hours. […] Thereafter, the amount of thymidine incorporated into the cells was measured, so as to evaluate DNA synthesis. […]

[2] = biological target: T2, betaKlotho-expressing BaF3 cells (Mus musculus, UniProt Q99N32); assay: DNA synthesis (thymidine incorporation) in BaF3 cells expressing only betaKlotho; settings: presence or absence of heparin
T2 construct: the entire-length cDNA of mouse betaKlotho was cloned into an animal cell expression vector; expressed in transfected cells; host or cells: BaF3 (mouse pro-B) cells
T2 sequence (Q99N32 1-1043): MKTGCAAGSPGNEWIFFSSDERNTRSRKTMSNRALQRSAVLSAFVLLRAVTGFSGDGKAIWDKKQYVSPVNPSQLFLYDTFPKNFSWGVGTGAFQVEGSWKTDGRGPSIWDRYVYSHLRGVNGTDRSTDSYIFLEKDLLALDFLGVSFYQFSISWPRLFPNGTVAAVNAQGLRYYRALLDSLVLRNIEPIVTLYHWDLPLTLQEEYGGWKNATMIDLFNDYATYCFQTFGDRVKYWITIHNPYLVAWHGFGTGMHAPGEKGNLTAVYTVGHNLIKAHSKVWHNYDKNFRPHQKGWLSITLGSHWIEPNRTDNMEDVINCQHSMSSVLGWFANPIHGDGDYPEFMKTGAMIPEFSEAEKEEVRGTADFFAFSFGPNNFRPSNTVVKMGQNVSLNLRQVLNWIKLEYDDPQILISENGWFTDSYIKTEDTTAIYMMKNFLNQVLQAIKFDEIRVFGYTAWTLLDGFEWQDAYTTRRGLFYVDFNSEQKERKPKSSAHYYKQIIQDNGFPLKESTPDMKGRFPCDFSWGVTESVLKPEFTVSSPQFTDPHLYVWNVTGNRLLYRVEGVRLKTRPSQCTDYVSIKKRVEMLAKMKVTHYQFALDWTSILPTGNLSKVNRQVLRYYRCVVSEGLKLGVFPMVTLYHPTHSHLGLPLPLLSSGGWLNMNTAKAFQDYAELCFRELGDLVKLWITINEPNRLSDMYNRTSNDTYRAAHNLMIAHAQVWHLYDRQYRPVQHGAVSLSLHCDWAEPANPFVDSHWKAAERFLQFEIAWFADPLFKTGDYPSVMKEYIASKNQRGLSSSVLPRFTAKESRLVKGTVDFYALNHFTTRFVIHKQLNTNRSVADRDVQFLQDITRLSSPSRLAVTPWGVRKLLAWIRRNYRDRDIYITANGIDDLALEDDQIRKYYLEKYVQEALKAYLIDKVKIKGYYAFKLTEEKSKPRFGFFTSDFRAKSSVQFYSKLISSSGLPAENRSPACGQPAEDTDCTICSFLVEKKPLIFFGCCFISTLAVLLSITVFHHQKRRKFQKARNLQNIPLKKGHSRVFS
Procedure: as §1, §2

[3] = system: undifferentiated 3T3-L1 cells that had not expressed betaKlotho; assay: Phosphorylation of FRS2 and MAPK in undifferentiated 3T3-L1 cells not expressing betaKlotho; settings: 10 minutes
Procedure: A betaKlotho expression vector produced by the method described in Example 4 and an empty vector used as a control, into which betaKlotho cDNA had not been inserted, were introduced into 3T3-L1 fibroblasts cultured as described in Example 1 by a lipofection method, thereby obtaining Puromycin-resistant clones. These different types of cells were stimulated with FGF21, and 10 minutes after the stimulation, a cell lysate was prepared. The activation of FRS2 and MAPK that were signaling molecules located downstream of FGFR was examined by a Western blotting method.

- DNA synthesis (thymidine incorporated into the cells) [1]: did not react with FGF21
- DNA synthesis (thymidine incorporated into the cells) [2]: did not react with FGF21
B1: FGF21: fibroblast growth factor 21; mouse-derived protein used in Examples 1-7 and 10-13 (protein)
chain: AYPIPDSSPLLQFGGQVRQRYLYTDDDQDTEAHLEIREDGTVVGAAHRSPESLLELKALKPGVIQILGVKASRFLCQQPDGALYGSPHFDPEACSFRELLLEDGYNVYQSEAHGLPLRLPQKDSPNQDATSWGPVRFLPMPGLLHEPQDQAGFLPPEPPDVGSSDPLSMVEPLQGRSPSYAS
- phosphorylated state of FRS2 and MAPK [3]: do not change
